Experimental data taken from the supplement of paper PMC7877785.
± gives the uncertainty stated by the source.

Test: self-splicing fitness, log relative to wild type (ln ratio); higher = more splicing; Tetrahymena group I intron in knt gene, E. coli kanamycin selection, DiMSum; sequences stand for … in CUCUCU…GGAGGGAAAAGUUAUCAGGCAUGCACCUGGUAGCUAGUCUUUAAACCAAUAGAUUGCAUCGGUUUAAAAGGCAAGACCGUCAAAUUGCGGGAAAGGGGUCAACAGCCGUUCAGUACCAAGUCUCAGGGGAAACUUUGAGAUGGCCUUGCAAAGGGUAUGGUAAUAAGCUGACGGACAUGGUCCUAACCACGCAGCCAAGUCCUAAGUCAACAGAUCUUCUGUUGAUAUGGAUGCAGUUCACAGACUAAAUGUCGGUCGGGGAAGAUGUAUUCUUCUCAUAAGAUAUAGUCGGACCUCUCCUUAAUGGGAGCUAGCGGAUGAAGUGAUGCAACACUGGAGCCGCUGGGAACUAAUUUGUAUGCGAAAGUAUAUUGAUUAGUUUUGGAGUACUCGUGGUCG
How it was run: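 DiMSum derived fitness as the error-weighted combination of fold changes across replicates, kanamycin versus no kanamycin, normalised to wild type. E. coli BL21(DE3) held the library, which randomised all eight P1ex-region intron nucleotides within the knt kanamycin-resistance gene on pET-22b(+). Six replicate transformations grew overnight at 37°C or 30°C on LB agar with or without 25 μg/mL kanamycin, also containing 100 μg/mL carbenicillin, 50 μM IPTG and 0.2% rhamnose, and pooled colonies were amplicon-sequenced on an Illumina HiSeq 2500.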

Sequence	self-splicing fitness (ln) (30 °C)	self-splicing fitness (ln) (37 °C)
GCAAAGCAAUAUUACGGGAC	-1.82 ± 0.11	-1.66 ± 0.16
CAAUAGCAAUAUUACGUACA	-3.18 ± 0.4	-1.82 ± 0.25
CCAGAGCAAUAUUACGGACA	-3.25 ± 0.44	–
UCCAAGCAAUAUUACGUGCA	-0.24 ± 0.083	0.425 ± 0.11
GAGAAGCAAUAUUACGCAGU	-3.98 ± 0.23	-2.06 ± 0.17
CGUCAGCAAUAUUACGCAGA	-2.79 ± 0.46	-3.76 ± 0.46
ACGGAGCAAUAUUACGCCCG	–	0.0539 ± 0.32
AGGAAGCAAUAUUACGCCCG	-0.151 ± 0.17	-0.394 ± 0.2
AUGAAGCAAUAUUACGGCGU	0.47 ± 0.064	0.205 ± 0.078
UGGCAGCAAUAUUACGCGAA	-0.273 ± 0.088	-0.139 ± 0.1
ACUCAGCAAUAUUACGGGAC	-2.72 ± 0.17	-1.6 ± 0.23
CGCAAGCAAUAUUACGGGCC	-1.55 ± 0.12	-1.02 ± 0.17
AACCAGCAAUAUUACGGCUU	-0.621 ± 0.056	0.209 ± 0.082
GAUGAGCAAUAUUACGCGCG	-1.68 ± 0.23	-0.518 ± 0.17
GAAGAGCAAUAUUACGGAAG	-2.81 ± 0.2	-2.59 ± 0.44
GUUCAGCAAUAUUACGUGAG	-0.139 ± 0.044	-0.408 ± 0.062
UAAAAGCAAUAUUACGGAAU	-3.12 ± 0.17	-2.18 ± 0.2
AUGGAGCAAUAUUACGACGA	–	0.0911 ± 0.24
UCGAAGCAAUAUUACGCGCG	-1.26 ± 0.1	-0.735 ± 0.12

Sequence	self-splicing fitness (ln) (30 °C)	self-splicing fitness (ln) (37 °C)
GGAUAGCAAUAUUACGGUGG	-3.85 ± 0.18	-2.48 ± 0.14
UGUCAGCAAUAUUACGGAGG	-1.68 ± 0.072	-0.948 ± 0.097
GUUUAGCAAUAUUACGGUCC	-0.925 ± 0.11	-0.109 ± 0.12
AGGCAGCAAUAUUACGUGUA	-2.19 ± 0.1	-1.09 ± 0.11
CGCAAGCAAUAUUACGAUAU	-2.7 ± 0.14	-1.91 ± 0.13
ACACAGCAAUAUUACGAUAU	-1.63 ± 0.08	-1.62 ± 0.098
AAUCAGCAAUAUUACGUAAA	-0.168 ± 0.067	0.573 ± 0.099
AAAAAGCAAUAUUACGUCUU	-0.301 ± 0.043	0.361 ± 0.063
AACAAGCAAUAUUACGAUUA	-0.823 ± 0.066	-0.696 ± 0.071
UUUCAGCAAUAUUACGGUGC	-3.27 ± 0.21	-3.4 ± 0.39
CGUAAGCAAUAUUACGAGCG	-1.02 ± 0.11	-2.67 ± 0.24
GUCUAGCAAUAUUACGAGUU	-2.13 ± 0.12	-1.32 ± 0.1
UAACAGCAAUAUUACGAUCA	-0.292 ± 0.074	0.115 ± 0.07
CAUUAGCAAUAUUACGGUUU	-3.82 ± 0.2	-2.68 ± 0.2
GUUUAGCAAUAUUACGUUCG	-1.61 ± 0.13	-0.589 ± 0.14
ACGGAGCAAUAUUACGGUUC	-4.29 ± 0.37	-1.32 ± 0.22
UCGCAGCAAUAUUACGCUAG	-4.54 ± 0.25	-2.18 ± 0.2
CGCCAGCAAUAUUACGUGGA	-3.6 ± 0.2	-2 ± 0.15
UGUCAGCAAUAUUACGUUUA	-0.825 ± 0.095	-0.114 ± 0.089
